Results reported in patent CN117843801A (BEILAI PHARMACEUTICAL CO LTD, dated 2024).

How the values were obtained:
[1] = target: IL-17RA and IL-17RC co-expressed on 293F-IL-17RA-IL-17Rc-ACT1-NFκB-Luc cells (UniProt Q96F46); assay: FACS, IL-17A on 293 cells overexpressing IL-17RA and IL-17RC
[2] = target: T1, Human IL-17A重组蛋白 (IL-17A-His) (human, UniProt Q16552 24-155, biotin label in the ELISA of Example 2 (Biotin-IL-17A-His); site not stated); assay: ELISA, antibody coated at 2 ug/mL, Biotin-IL-17A-His titrated from 10 ug/mL (5-fold, 7 points), HRP-streptavidin
T1 construct: also called IL-17A抗原蛋白; Biotin-IL-17A-His
T1 sequence (Q16552 other isoform, or with tags, fused parts or gaps limits assumed): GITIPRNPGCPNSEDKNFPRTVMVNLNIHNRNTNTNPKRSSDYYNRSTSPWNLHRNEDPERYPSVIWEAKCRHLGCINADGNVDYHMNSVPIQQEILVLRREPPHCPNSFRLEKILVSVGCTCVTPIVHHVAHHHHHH

[3] = target: T1, Human IL-17A重组蛋白 (IL-17A-His); assay: cell-based or functional assay

Human IL-17A重组蛋白 (IL-17A-His), sequence (Q16552 other isoform, or with tags, fused parts or gaps limits assumed): as above

Row | Molecule | 阳性率 [1] [%] | EC50 [2] [µg/mL] | IC50, 阻断活性 (reporter cells) [3] [µg/mL]
1 | Human IL-17A重组蛋白 (IL-17A-His) (from UniProt Q16552 24-155) (ligand) | > 90 |  | 
2 | Ixekizumab (antibody, human IgG4 S228P, kappa, V domains shown, Made in house from the variable regions cloned into pcDNA3.4-hIgG4 and pcDNA3.4-hIgKc vectors; positive control; also called 阳性对照抗体Ixekizumab; 对照抗体Ixekizumab) VH: QVQLVQSGAEVKKPGSSVKVSCKASGYSFTDYHIHWVRQAPGQGLEWMGVINPMYGTTDYNQRFKGRVTITADESTSTAYMELSSLRSEDTAVYYCARYDYFTGTGVYWGQGTLVTVSS VL: DIVMTQTPLSLSVTPGQPASISCRSSRSLVHSRGNTYLHWYLQKPGQSPQLLIYKVSNRFIGVPDRFSGSGSGTDFTLKISRVEAEDVGVYYCSQSTHLPFTFGQGTKLEIKR |  | 10.1 | 1.36
3 | 串联纳米抗体C11-1-F2 (Fc fusion) DVQLVESGGGLVQPGGSLRLSCAASESLLRLYAMGWYRQLPGQEREWVAIHTTSDTTNYRDSVKGRFTLSRDVATNTIYLQMTSLKPEDTAVYYCHVTSMRDSQNYWGQGTQVTVSSGGGGSGGGGSGGGGSQVQLVESGGGLVQPGGSMRLSCAASTIGLSIYSGAWYRQAAGKQRELVARITRRGVTNYADSVKGRFTISKDNAKNTVSLEMNSLKPEDTAVYYCNVGGEDGYWGQGTQVTVSS |  | 0.745 | 1.16

Results, then the molecule that gave them:

Row | 阳性率 [1] [%] | EC50 [2] [µg/mL] | IC50, 阻断活性 (reporter cells) [3] [µg/mL] | Molecule
4 |  | 4.04 | 14.2 | 单域抗体(2)(1-F2) (Fc fusion) QVQLVESGGGLVQPGGSMRLSCAASTIGLSIYSGAWYRQAAGKQRELVARITRRGVTNYADSVKGRFTISKDNAKNTVSLEMNSLKPEDTAVYYCNVGGEDGYWGQGTQVTVSS
5 |  | 30 | 18.8 | 单域抗体(1)(1-C11) (Fc fusion) DVQLVESGGGLVQPGGSLRLSCAASESLLRLYAMGWYRQLPGQEREWVAIHTTSDTTNYRDSVKGRFTLSRDVATNTIYLQMTSLKPEDTAVYYCHVTSMRDSQNYWGQGTQVTVSS
